tested on: Escherichia coli TOP10; test: shrunken log2 fold change of peptide-encoding DNA abundance (4.5 h post-induction vs induction); higher = less antimicrobial activity (less host growth inhibition); conditions: time post-induction: 4.5 h; library: site-saturation at positions 5, 18, 19, 20
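Also: peptides expressed intracellularly from a pBAD plasmid library in pooled LB shake-flask culture, induced with 0.3% L-arabinose, DNA abundance read by NGS, three biological replicates, DESeq2 with apeglm shrinkage.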

Sequence	shrunken log2 fold change
RRIRVRPPRLPRPRPRPSGRPRP	0.0291
RRIRPRPPRLPRPRPRPHMGPRP	-0.461
RRIRERPPRLPRPRPRPPYNPRP	-0.728
RRIRWRPPRLPRPRPRPQQAPRP	-0.000157
RRIRLRPPRLPRPRPRPREIPRP	0.0725
RRIRKRPPRLPRPRPRPHRAPRP	0.515
RRIRGRPPRLPRPRPRPWSMPRP	0.0583
RRIRTRPPRLPRPRPRPGMPPRP	-0.0497
RRIRLRPPRLPRPRPRPPFAPRP	0.543
RRIRIRPPRLPRPRPRPPIGPRP	-0.0282
RRIRLRPPRLPRPRPRPQYLPRP	-0.0559
RRIRHRPPRLPRPRPRPMMYPRP	-0.0859
RRIRKRPPRLPRPRPRPWSVPRP	-0.0212
RRIRWRPPRLPRPRPRPQFLPRP	-0.0223
RRIRMRPPRLPRPRPRPIKCPRP	-0.0724
RRIRTRPPRLPRPRPRPIPQPRP	0.284
RRIRWRPPRLPRPRPRPQVHPRP	0.0992
RRIRGRPPRLPRPRPRPHCTPRP	-0.0815
RRIRGRPPRLPRPRPRPVTRPRP	0.383
RRIRMRPPRLPRPRPRPEIFPRP	1.27
RRIRYRPPRLPRPRPRPFMEPRP	-0.0943
RRIRMRPPRLPRPRPRPFAGPRP	-0.0745

Sequence	shrunken log2 fold change
RRIRWRPPRLPRPRPRPTYSPRP	-0.163
RRIRDRPPRLPRPRPRPVIFPRP	0.212
RRIRCRPPRLPRPRPRPRIEPRP	-0.205
RRIRWRPPRLPRPRPRPHPRPRP	0.451
RRIRMRPPRLPRPRPRPGKQPRP	-0.00189
RRIRFRPPRLPRPRPRPLDNPRP	0.0244
RRIRGRPPRLPRPRPRPNTKPRP	-0.066
RRIRARPPRLPRPRPRPAVRPRP	0.545
RRIRGRPPRLPRPRPRPAWDPRP	0.76
RRIRLRPPRLPRPRPRPYITPRP	-0.716
RRIRERPPRLPRPRPRPGQSPRP	0.0977
RRIRMRPPRLPRPRPRPNGIPRP	0.0753
RRIRERPPRLPRPRPRPYSSPRP	-0.0288
RRIRKRPPRLPRPRPRPSVPPRP	0.21
RRIRIRPPRLPRPRPRPLIVPRP	-0.622
RRIRGRPPRLPRPRPRPCWPPRP	0.455
RRIRQRPPRLPRPRPRPNGMPRP	-0.0839
RRIRCRPPRLPRPRPRPSINPRP	-0.86
RRIRGRPPRLPRPRPRPCECPRP	-0.0257
RRIRKRPPRLPRPRPRPAFRPRP	0.576
RRIRYRPPRLPRPRPRPYLDPRP	0.0821
RRIRNRPPRLPRPRPRPQHPPRP	-0.325

Sequence	shrunken log2 fold change
RRIRYRPPRLPRPRPRPMLKPRP	-0.374
RRIRFRPPRLPRPRPRPVPMPRP	0.108
RRIRDRPPRLPRPRPRPRNKPRP	-0.014
RRIRLRPPRLPRPRPRPDSMPRP	-0.166
RRIRPRPPRLPRPRPRPINVPRP	-0.366
RRIRPRPPRLPRPRPRPPKHPRP	0.499
RRIRTRPPRLPRPRPRPPHLPRP	0.0444
RRIRCRPPRLPRPRPRPCTEPRP	-0.186
RRIRYRPPRLPRPRPRPTETPRP	-0.00564
RRIRSRPPRLPRPRPRPHKNPRP	-0.283
RRIRHRPPRLPRPRPRPQLLPRP	-0.197
RRIRKRPPRLPRPRPRPGWAPRP	1.04
RRIRIRPPRLPRPRPRPNYTPRP	-0.516
RRIRPRPPRLPRPRPRPPIIPRP	-0.231
RRIRTRPPRLPRPRPRPYDCPRP	-0.304
RRIRGRPPRLPRPRPRPRCGPRP	0.751
RRIRPRPPRLPRPRPRPFWKPRP	0.0756
RRIRHRPPRLPRPRPRPLMEPRP	-0.348
RRIRQRPPRLPRPRPRPCWRPRP	-0.0087
RRIRARPPRLPRPRPRPYRAPRP	-0.141
RRIRYRPPRLPRPRPRPQLSPRP	-0.0974
RRIRGRPPRLPRPRPRPYMRPRP	0.0456

Sequence	shrunken log2 fold change
RRIRERPPRLPRPRPRPGIMPRP	-0.738
RRIRARPPRLPRPRPRPQMKPRP	0.433
RRIRQRPPRLPRPRPRPRRQPRP	0.197
RRIRSRPPRLPRPRPRPCKLPRP	-0.218
RRIRHRPPRLPRPRPRPGNVPRP	-0.36
RRIRHRPPRLPRPRPRPKQMPRP	-0.0152
RRIRFRPPRLPRPRPRPVSMPRP	0.174
RRIRHRPPRLPRPRPRPPFWPRP	0.0835
RRIRDRPPRLPRPRPRPAHIPRP	-0.0312
RRIRRRPPRLPRPRPRPMSIPRP	-0.465
RRIRYRPPRLPRPRPRPIMPPRP	-0.948
RRIRYRPPRLPRPRPRPMFDPRP	-1.4
RRIRRRPPRLPRPRPRPGWTPRP	0.326
RRIRERPPRLPRPRPRPKTDPRP	-0.497
RRIRVRPPRLPRPRPRPSTEPRP	-0.331
RRIRGRPPRLPRPRPRPQTKPRP	0.8
RRIRYRPPRLPRPRPRPPWFPRP	-0.205
RRIRSRPPRLPRPRPRPRCYPRP	-0.107
RRIRHRPPRLPRPRPRPSKPPRP	0.00696
RRIRVRPPRLPRPRPRPYFKPRP	-0.49
RRIRVRPPRLPRPRPRPVIIPRP	-0.182
RRIRPRPPRLPRPRPRPKYCPRP	-0.91

Sequence	shrunken log2 fold change
RRIRGRPPRLPRPRPRPQRHPRP	0.338
RRIRKRPPRLPRPRPRPLCIPRP	-0.0466
RRIRRRPPRLPRPRPRPNFSPRP	0.211
RRIRMRPPRLPRPRPRPMDPPRP	0.038
RRIRIRPPRLPRPRPRPPTPPRP	0.238
RRIRDRPPRLPRPRPRPVYDPRP	-0.434
RRIRKRPPRLPRPRPRPFYRPRP	0.0824
RRIRFRPPRLPRPRPRPNDPPRP	-0.226
RRIRARPPRLPRPRPRPELSPRP	0.0862
RRIRRRPPRLPRPRPRPPRPPRP	1.01
RRIRARPPRLPRPRPRPKMNPRP	0.0254
RRIRQRPPRLPRPRPRPANWPRP	0.431
RRIRQRPPRLPRPRPRPHSTPRP	-0.149
RRIRIRPPRLPRPRPRPGDQPRP	-0.0693
RRIRDRPPRLPRPRPRPRSSPRP	-0.0289
RRIRARPPRLPRPRPRPQEPPRP	0.744
RRIRVRPPRLPRPRPRPQRMPRP	0.0511
RRIRDRPPRLPRPRPRPMRLPRP	0.674
RRIRTRPPRLPRPRPRPNNVPRP	-0.227
RRIRARPPRLPRPRPRPFCAPRP	0.394
RRIRHRPPRLPRPRPRPDKGPRP	0.0349

Reference: the supplement of paper PMC9112550, “Optimization of the antimicrobial peptide Bac7 by deep mutational scanning” (BMC Biology, 2022)
